Test results: the nanobody polyreactivity screen of Harvey et al. (2022)

Assay: yeast display, Sf9 membrane polyspecificity reagent, FACS + sequencing; frameworks hold sequencing errors
In short: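 After 36–48 hours of galactose induction, yeast (Saccharomyces cerevisiae BJ5465) displaying a synthetic nanobody library were stained at 4 °C for 1 hour with 10% biotinylated, detergent-solubilized Sf9 membrane reagent. Streptavidin microbeads enriched the stained cells before FACS sorting into low and high (top ~1%) gates on anti-HA and streptavidin fluorescence. Each clone's polyreactivity label reflects its gate of origin.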

Row | Sequence | polyreactivity (PSR sort gate)
1 | QVQLVESGGGLVQAGGSLRLSCAASGSIFPWNAMGWYRQAPGKERELVAAISYSGTRTYYADSVKGRFTISRDNAKNTVYLQMNSLKPVDTAVYYCNARGYTRSYVKYDYWGQGTQVTVSS | high polyreactivity
2 | QVQLVESGGGLVHAGGSLRLSCAASGSTFKYYAMGWYRQAPGKERELVAAISSGNSTYYADSVKGRFTISRDNAKNTVYLQMNSLKPEDTAVYYCAAYWRRDPMDYWGQGTQVTVSS | high polyreactivity
3 | QVQLVESGGGLVQAGGSLRLSCAASGSIFAVYAMGWYRQAPGKERELVAAISSRGSSTYYADSVKGRFTISRDNAKNTVYLQMNSLIPEDTEVYYCAARPGIRSYPPGYGYWGQGTQVTVSS | low polyreactivity
4 | QVQLVESGGGLVQAGGSLRLTCAASGRTFAWYAMGWYRQAPGKERDLVAAISSAGSTYYADSVKGRFTISRDNAKNTVYLQMNSLKPEDTAVYYCAASFGRYTSGTYYYWGQGTQVTVSS | high polyreactivity
5 | QVQLVESGGGLVQAGGSLRLSCAASGSIFGSYAMGWYRQAPGKERELVAGIRSGGSTYYADSVKGRFTISRDNAKNTVYLQMNSLKPEDTAVYYCAGHEEYWGQGTQVTVSS | low polyreactivity
6 | QVQLVESGGGLVQAGGSLRLSCAASGFIFTTYAMGWYRQAPGKERELVAAISSSGTTYYADSVKGRFTISRDNAKNTVYLQMNSLKPEDTAVYYCAARRQFRSYQQRLYYWGQGTQVTVSS | low polyreactivity
7 | QVQLVESGGGLVQAGGSLRLSCAASGRTFFVYAMGWYRQAPGKVRELVAAISNTGGRTYYADSVKGRFTISRDNAKNTVYLQMNSLKPEDTAVYYCAAPYSGPYRSYEYYWGQGTQVTVSS | low polyreactivity
8 | QVQLLESGGVLVQAGGSLLLSCAASGSIFSPYAMGRYRQAPGKERELVATISTIDGSTTYADSVKGRFTISRDYAKNTVYLQMKSLKPEDTAVYYCNAEYAYFKLWANPYDMDYWGQGTQVTVSS | low polyreactivity
9 | QVQLVESGGGLVQAGGSLRLSCAASGRIILGYAMGWYRQAPGKERELVARITWSGGSTYYADSVKGRFTISRDNAKNTVSLQMNSLKPEDNAVYYCAKRTYYSYPDGYWGQGTQVTVSS | high polyreactivity
10 | QVQLVESGGGLVQAGGSLRLSCAASGLIFRYYAMGWYRQAPGKERELVAAIDGSDGITYYADSVKGRFTISRDNAKNTVYLQMNSLKPEDTEVYYCDAAFYYWGQGTQVTVSS | low polyreactivity
11 | QVQLVESGGGLVQAGGSLRLSCAASGRIFDTYAMGWYRQAPGKERELVAAITRRGGSTYYADSVKGRFTISRDNAKNTVYLQMNSLKPEDSAVYYCAKSLVNRHYDYWGQGTQVTVSS | low polyreactivity
12 | QVQLVESGGGLVQAGGSLRLSCAASGRTFSSYAMGWYRQAPGKERELVAAINSGGSTNYADSVKGRFTISRDNAKNTVYLQMNSLKPEDTAVYYCNAVTFWGLGYDYWGQGTQVTVSS | low polyreactivity
13 | QVQLVDSGGGIVQAGGSLRLSCAASGSTFYSYAMGWYTQAPGKERELVAAINRDGVSTYYSDSVKGRFTISRYNAKNTVYLLMNSLKPEDTAVYYCNARHQTLRSYRYDYWGQGTQVSVSS | low polyreactivity
14 | QVQLVESGGGLVQAGGSIRLSCAASVFTFRANGMGWYRKAPGKERELVATITSGGTTNYADSVKGRFTISRDNAKNTVYLQMNSLIPEDTAVYYCNAGSVSDRQMDYWGQGTQGTVSS | low polyreactivity
15 | QVQLVESGGGLVQAGGSLRLSFAASGINFRSYTMGWYRQAPGKERELVAGITRSGGSTYYADSVKGRFTISRDNAKNTVYLQMNSLKPEDSAVYYCAAKFRAGRSSYYWGHGTQVTVSS | high polyreactivity
16 | QVQLVESGGGLVQAGGSLRLSCAASGSTFRRYAMGWYRQAPGKERELVAAITTADITNYADSVKGRFTISRDNAKNTVYLQMNSLKPEDTAVYYCAAPVAYRGSRNFIYRYNYWGQGTQVTVSS | high polyreactivity
17 | QVQLEESAGGLVQAGGSLRLSCAASGRIFTGSNVMVWYRQSPGKETEFVAVINSGGGSTYYADSVKGRFTISRDNAKNTVFLQMNSLKPEDTAVYYCAADVGGWGYYYWGQGTQVTVSS | low polyreactivity
18 | QVQLVESGGGLVQAGGSLRLSCAASGITFHGYAMGWDRQAPGKERELVAAISDSGSSTYYADSVKGRFTISRDNAKNTVYLQMNSLKPEHTAVYYCAAVSGFYDQYDYWGQGTQVTVSS | low polyreactivity
19 | QVQLVESGGGLVQAGGSLRLSCAASGRTFYEYAMGCYIPAPGKERELVAAITSGGTTYYADSVKGRFTISRDTAKNTVYLQMNSVKPEDTAVYYCAADRYYYYWGQGTQVTVSS | high polyreactivity
20 | QVQLVESGGGLVQAGGSLRLSCAASGSTFKRYAMAWYREGPGKEMDLVASISRSGCSTYYADSVKGRFTISRDNAKNSVYLQMNSLIPEDTAVYYCASRGFSFSFSYPSYDYWGQGTQVTVSS | high polyreactivity
21 | QVQLVESGGGLVQAGGSLRLSCAASGSIFRYYAMGWYRQAPGKERELVAAITASSGNTYYADSVKGRFTISRDNAKNTVYLQMNRLKPEDTSVYYCSKQPGISYRHYDYWGLGTQVTVSS | high polyreactivity
22 | QVQLVESGGGLVQAGGSLRLSCAASGFIFGVYDMGWYRQAPGKERELVAAIDSVGSTYYADSVKGRFTISRDNAKNTVYFQMNSLKPEDTAGYYCNAARSRLYYVKYYYWGQGTQVTVSS | low polyreactivity

Row | Sequence | polyreactivity (PSR sort gate)
23 | QVPLVESGGGLVQAGGSLRLSCAASGRTFVGYAMGWSSQAPGKDRELVARITGRSGSTYYADSVKGRFTISRDNAKNTVYLQMNSLKTEDTAVYDCAKRITYYYPGYDDWGQGTQVTVAS | low polyreactivity
24 | QVQLVESGGGLVQAGGSLRLSCAAYGRIIYLNAMGWYRQAPGKERELVATISSSGGTTNYADSVKGRFTISRDNAKNTVYLQMNSLKPEDTAVYYCAAKFVGTTVSEYGYWGQGTQVTVSS | low polyreactivity
25 | QVQLVESGGGLVQAGGSLRLSCAASGRIFPGYAMGWYRQAPGKEREFVAAITASGGTTYYADSVKGRFTISRDNAKNTVYLQMNSLKPEDTAVYYCAVYDWRYYLGKLMEYWGQGTQVTVSS | high polyreactivity
26 | QVQLVESGGGLVQAGGRLRLSCAASGSIFLFYAMGWYRKAPVKERELVARITSSGGTTYYADSVKGRFTISRDNAKNTVYLQMNSLKPEDTAVYYCAASYFIYHYDFDYWGQGTQVTVSS | high polyreactivity
27 | QVQLVESGGGLVQAGGSLRLSCAASGSTFRVNAMGWYRQEPGKEREFVDAITWSTGSTYYADSVKGRFTISRDYAMNTVYLQMNSLKPEDTAVYYCAAREQTYSQRGKKLYYFWGQGTQVTVST | high polyreactivity
28 | QVQHVESGGGLVQAGGSLRLSCAASGRTFVTNAKGWYRQAPGKERELVAAISSSGGSTYYADSVKGRFTISRDNAKNTVYLQMNSLKPEDTAVYYCATDRYVTPRLRFDYWGQGTQVTVSS | low polyreactivity
29 | QVQLVESGGGLVQAGGSLRLSCAASGRTFQYNAMGWNTQAPGKERELVAAISSGGSTYYADSVKGRFTISRDNAKNTVYLQMNSLKPEDTAVYYCNAVTGYQHVKYRYYYWGQGTQVTVSS | low polyreactivity
30 | QVQLVESGGGLVQSGGSLRLSCAASGLIFTSYAMGWYRQAPGKERELVAAISYSGGTTFYADYVKGRFTISRDNAKNTVYLQMNSLKPEDTAVYYCAADSLSTTHDTLGYDRDDYWGQGTQVTVSS | low polyreactivity
31 | QVQLVESGGGLVQAGGSLRLSCAASGSTFHRYAMGWYRQAAGKERELVATITSRGGITYYADSVKGRFTISRDNAKNTVYLQMNSLKPEDTAVYYCNTEDGTTPQYGYDQGMYYWGQGTQVTVSS | low polyreactivity
32 | QVQLVESGGGLVQAGGSLRLSCAASGRIFQRYAMGWYRQAPGKERELVAAISKNGGRTYYADSVKGRFTISRDNAKNTVYLQMNSLKPEDTAVYYCNKGTAGYEYAAFDYWGQGTQVTVSS | low polyreactivity
33 | QVQRVESGGGLVQAGGSRRLSCAASGNIFRRYTMGWYRQAPGKERELVAAISRRGGSTHYADSVKGRFTISRDNAKNTVYLQMNSLKPEDTAVYYCNAYLVYSYSPSHYYGFGYWGQGTQVTVSS | high polyreactivity
34 | QVQLVESGGGLVQAGGSLRLSCAASGSIFYSNAMGWYRQAPGKERELVAAISDGGTSTYYADSVKGRFTISRDNAKNTVYFQMNSLKPEDTAVYYCAAESTLQDWNWYKYYYWGQGTQVTVSS | low polyreactivity
35 | QVQLVESGGGLVQAGGSLRLSCAASGSTFSVNAMGRYRQATGKERELVATISGGITNYADSVKGRFTISRDNAKNTVYLQMNSLKPEDTAVYYCNTAYRHIWVTWAAYDYWGQGTQVTVSS | low polyreactivity
36 | QVQLVESGGGLVQAGGSLRLSCAASGSTFYAYAMGWYRQAPGKERELVAAISGSGGRTYYADSVKGRFTISRDNAKNTVYLQMNSLKPEDTAVYYCAASLTSRLPDPPRYYWGQGTQVTVSS | high polyreactivity
37 | QVQLVESGGGLVQAGGSLRLSCAASGSTSVQYAMGWYRQAPGKERELVAAIDRSGGSTSYADSVKGRFTISRDNAKHTVYLQMNSLKPEDTAVYYCNADVHNRGWPYDYWGQGTQVTVSS | low polyreactivity
38 | QVQLVESGGGLVQAGGSLRLSCAASGSTFAIYAMGWYRQAPGKERELVAAISKSGGSTYYADSVKGRFTISRDNAKNTVYLQMNSLKPEDTAVYYCARRQYAFGPYGFYYWGQGTQVTVSS | high polyreactivity
39 | QVRLVESGGGLVQAGGSLRLSCAASGRTFRIYAMGWYRQAPGKERELVAAIRWSGGTTYYADSVKGRFTISRDNAKNTVYLQMNSLKPEDTAVYYCNTNSYYEDDYWGQGTQVTVSS | high polyreactivity
40 | QVHLVESRGGLLQAGGSLRLSCAASVYIFYYYAMGWYRQAPGKEREFVAAITSGDSTYADSVKGRFTISRDNAKNTVYLQMYSLKPEDTAVYYCAAESYFFSPRTREKFDSWGQGTQVTVSS | low polyreactivity
41 | QVQLVESGGGLVQAGGSLRLSCAASGRTFDKYAMGWYRQAPGKERELVAAITRSGGSTYYADSVKGRFTISRDNAKNTVYLQMNSLKPEDTAVYYCAKRYWSYRWKYDYWGQGTQVTVSS | high polyreactivity
42 | QVQLVESGGGLVQAGGSLRLSCATSGSIFVFNAMGWYRQAPGKERELVAAIDTSDDITYYADSVKGRFTISRDNAKNTVYLQMNSLKPEDTAVYYCNAETYGLVPYYIYHYEFDYWGQGTQVTVSS | high polyreactivity
43 | QVQLVESGGGLVQAGGSLRLSCAASGRTFFINTMGWYRQAPGKERELVAAITWSGGSTYYADSVKGRFTISRDNAKNTVYLQMNSLKPEDTAVYYCAAVYVYRPDIIYVEVAYDYWGQGTQVTVSS | low polyreactivity
